For one series, the system named is THP-1 cells. Briefly: NSG mice xenografted with THP-1 cells. In kind it is in vivo, mouse. From the text:
FIGS. 7A-N. Blocking anti-LILRB3 antibody prevents monocytic AML development. (FIG. 7A) Epitope binning of 30 high-affinity IgGs. (FIG. 7B) CFU assay of mouse MLL-AF9 AML cells in the presence of above IgGs (n=3 independent experiments). (FIG. 7C) Binding affinities of the two IgGs from bin #3. (FIG. 7D) Upper: Schematic of treatment. Lower: Percentages of GFP^+ MLL-AF9 mouse AIL cells in peripheral blood (PB), bone marrow (BM), spleen (SPL), and liver (LV) of mice transplanted with AML cells expressing B3-FL or B3delICD and injected with IgG or anti-LILRB3 #1 N297A (n=3 independent mice). (FIG. 7E) Overall survival of mice transplanted with indicated AML cells as above. (FIG. 7F) CFU assay of MLL-AF9 mouse AML cells expressing B3-FL or B3delICD in the presence of IgG or anti-LILRB3 #1 N297A (n=3 independent experiments) (FIG. 7G) Upper: Schematic of treatment. Recipient mice were injected with mouse IgG or anti-mCD8 to deplete CD8 T cells. Lower: Percentages of GFP^+ MLL-AF9 mouse AML cells in peripheral blood (PB), bone marrow (BM), spleen (SPL), and liver (LV) of mice transplanted with AML cells expressing B3-FL or B3delICD and injected with IgG or anti-LILRB3 #1 LALAPG (n=4 mice). […] The data are presented as mean±s.e.m, and p values were calculated by two-tailed t-test except for FIG. 7E, FIG. 7H, FIG. 7J and FIG. 7M by log-rank test. […]

For another series, the system named is MLL-AF9 AML cells. Briefly: CFU assay of mouse MLL-AF9 AML cells. In kind it is cell-based. From the text:
FIGS. 7A-N. Blocking anti-LILRB3 antibody prevents monocytic AML development. (FIG. 7A) Epitope binning of 30 high-affinity IgGs. (FIG. 7B) CFU assay of mouse MLL-AF9 AML cells in the presence of above IgGs (n=3 independent experiments). (FIG. 7C) Binding affinities of the two IgGs from bin #3. (FIG. 7D) Upper: Schematic of treatment. Lower: Percentages of GFP^+ MLL-AF9 mouse AIL cells in peripheral blood (PB), bone marrow (BM), spleen (SPL), and liver (LV) of mice transplanted with AML cells expressing B3-FL or B3delICD and injected with IgG or anti-LILRB3 #1 N297A (n=3 independent mice). (FIG. 7E) Overall survival of mice transplanted with indicated AML cells as above. (FIG. 7F) CFU assay of MLL-AF9 mouse AML cells expressing B3-FL or B3delICD in the presence of IgG or anti-LILRB3 #1 N297A (n=3 independent experiments) (FIG. 7G) Upper: Schematic of treatment. Recipient mice were injected with mouse IgG or anti-mCD8 to deplete CD8 T cells. Lower: Percentages of GFP^+ MLL-AF9 mouse AML cells in peripheral blood (PB), bone marrow (BM), spleen (SPL), and liver (LV) of mice transplanted with AML cells expressing B3-FL or B3delICD and injected with IgG or anti-LILRB3 #1 LALAPG (n=4 mice). (FIG. 7H) Survival of mice as in panel h (n=4 independent mice). (FIG. 7I) Upper: Schematic of treatment. Lower: Whole-body images of NSG mice transplanted with luciferase-expressing THP-1 cells and treated with IgG or anti-LILRB3 #1 N297A (#1NA). (FIG. 7J) Overall survival of the mice shown in panel h (n=3 independent mice). (FIG. 7K) Upper: Schematic of treatment. Lower: Whole-body images of NSG mice transplanted with luciferase-expressing Molm13 cells, injected with activated T cells, and treated with IgG or #1NA. (FIG. 7L) Luciferase signaling as a function of time in mice treated as described in panel k. (FIG. 7M) Overall survival of mice treated as described in panel k (n=3 independent mice). (FIG. 7N) Analyses of T cells in peripheral blood of mice treated as described in panel 1 at 22 days after Molm13 AML cell transplantation. Upper: Flow cytometry analyses. Lower: Plot of T cell percentages (n=3 independent mice). The data are presented as mean±s.e.m, and p values were calculated by two-tailed t-test except for FIG. 7E, FIG. 7H, FIG. 7J and FIG. 7M by log-rank test.
FIGS. S6A-J. Development of anti-LILRB3 blocking antibodies for suppressing AML development. (FIG. S6a) Upper: Flow chart of strategy for development of fully humanized antibodies against LILRB3. Lower: The identified antibodies were tested in the LILRB3 chimeric receptor reporter cell assay. (FIG. S6b) ELISA results for LILRB3 binders. (FIG. S6c) EC50 values of the anti-LILRB3 antibodies based on ELISA. (FIG. S6d) Affinities of antibodies #32, #33, #67, and #45 to LILRB3 as determined by Octet. (FIG. S6e) Cross-reactivity of the anti-LILRB3 antibodies with LILRAs evaluated with LILRA binding analyses. (FIG. S6f) Cross-reactivity of the anti-LILRB3 antibodies with other LILRBs evaluated with LILRB binding analyses. (FIG. S6g) Interaction with TRAF2 contributes to the effect of LILRB3 on AML development. […] (FIG. S6j) NF-κB signaling target gene expression (measured by qPCR) in THP-1 cells from BM of xenografted NSG mice treated with anti-LILRB3 #1NA or IgG (n=3 individual samples). […]

A short description of series [1]: Myeloid LysM-Cre driven LILRB3-transgenic C57BL/6 mice, hematopoiesis. In kind it is in vivo, mouse. The method, then:
FIGS. S7A-C. […] (FIG. S7a) Schematic of generation of myeloid-specific LILRB3 transgenic mice. (FIGS. S7b-c) LILRB3 is expressed on myeloid cells in peripheral blood (PB), spleen (SPL) and bone marrow (BM) of LysM-Cre driven LILRB3 transgenic mice, which were treated by anti-LILRB3 #1 antibody (n=2 mice) or IgG (n=3 mice). Shown are representative flow cytometry plots (FIG. S7b) and result summary (FIG. S7c).
LILRB3 transgenic mice. LILRB3 cDNA was constructed into pR26 CAG AsiSI/MluI. Then the plasmid was purified with high concentration in the absence of endotoxin. Cas9 RNA, gRNA targeting mouse Rosa26 locus and the LILRB3 plasmid co-injected into mouse oocytes at the transgenic core facility of UTSW. The LILRB3 positive mice were identified by LILRB3 specific primers and crossbred with LysMcre mice (JAX, 004781). The LILRB3^+LysMcre^+ mice were analyzed with co-expression of LILRB3 and Mac-1 or Gr-1 in peripheral blood, spleen and bone marrow.

B1: anti-LILRB3 #1 N297A: IgG #1 with Fc glycosylation N297A mutation, defective Fc-mediated effector functions (antibody, V domains shown)
VH: EVQLVESGGGVVQPGRSLRLSCAASGFTFSSYGMHWVRQAPGKGLEWVAFIRYDGSNKYYADSVKGRFTISRDNSKNTLYLQMNSLRAEDTAVYYCAKAGFSGWYYYGMDVWGQGTMVTVSS
VL: DIVMTQSPSSLSASVGDRLTITCRASQSISTYLNWYQQKPGKAPKLLIYGASSLQSGVPSRFSGSGSGTDFTLTISSLQPEDFATYFCQQSYGLPLTFGGGTKVDIK
Turning to B1, the leukemia development entry in the series with THP-1 cells (NSG mice, THP-1 xenograft, versus controls) is listed as “significantly delayed leukemia development”. Besides, the “LILRB3 signaling in THP-1 cells (NF-κB target gene expression by qPCR)” value with THP-1 cells (THP-1 cells from BM of xenografted NSG mice) is recorded as “decreased”. Further, the “CFU formation of AML cells expressing mutant LILRB3 that cannot interact with TRAF2” value in the series on MLL-AF9 AML cells (AAA mutant (QEE509-511AAA)) was “did not decrease CFU formation”. The “CFU formation by B3-FL AML cells” value in the series on MLL-AF9 AML cells (versus IgG) is reported as “decreased CFU formation”. Besides, the “normal hematopoiesis and leukocytosis” value in series [1] (LILRB3 transgenic mice) was “did not affect normal hematopoiesis and leukocytosis”. Moreover, in series [1] (suggested from the transgenic mice), the toxicity result is given as “low toxicity”.

Values taken from patent publication US20240101667A1, “METHODS FOR IDENTIFYING LILRB-BLOCKING ANTIBODIES” (THE BOARD OF REGENTS OF THE UNIVERSITY OF TEXAS SYSTEM, priority 2020, published 2024).
